Data on 78 variants can be found in the RNAGym collection of RNA variant scans (doi:10.7554/elife.80360).

B1: CPEB3 Ribozyme (parent)
chain: GGGGGCCACAGCAGAAGCGUUCACGUCGCGGCCCCUGUCAGAUUCUGGUGAAUCUGCGAAUUCUGCUGU

The variants in the data set derive from B1. Kind of data set: self-cleavage, relative activity (ratio to wild type); higher = more cleavage; co-transcriptional.
With GGGGGCCACAGCAGAAGCGUUCACGUCGCGGCCCCUGUGAGAUUCUGGUGAAUAUGCGAAUUCUGCUGU, the self-cleavage turned out to be 0.561.

GGGGGCCACAGCAGAAGCGUUCACGUCGCGGCCCCUGUGAGAUUCUGGUGAAUGUGCGAAUUCUGCUGU: the self-cleavage was found to be 0.625. To GGGGGCCACAGCAGAAGCGUUCACGUCGCGGCCCCUGUGAGAUUCUGGUGAAUUUGCGAAUUCUGCUGU belongs 0.888. To GGGGGCCACAGCAGAAGCGUUCACGUCGCGGCCCCUGUGAGAUUCUCGUGAAUCUGCGAAUUCUGCUGU belongs 0.986; to GGGGGCCACAGCAGAAGCGUUCACGUCGCGGCCCCUGUGAGAUUCUUGUGAAUCUGCGAAUUCUGCUGU, 0.989. To GGGGGCCACAGCAGAAGCGUUCACGUCGCGGCCCCUGUGAGAUUCUAGUGAAUCUGCGAAUUCUGCUGU belongs 0.996; to GGGGGCCACAGCAGAAGCGUUCACGUCGCGGCCCCUGUGAGAAUCUGGUGAAUCUGCGAAUUCUGCUGU, 0.522; to GGGGGCCACAGCAGAAGCGUUCACGUCGCGGCCCCUGUGAGAGUCUGGUGAAUCUGCGAAUUCUGCUGU, 0.448. For GGGGGCCACAGCAGAAGCGUUCACGUCGCGGCCCCUGUGAGAUACUGGUGAAUCUGCGAAUUCUGCUGU, the self-cleavage stood at 0.772.

For the variant GGGGGCCACAGCAGAAGCGUUCACGUCGCGGCCCCUGUGAGAUGCUGGUGAAUCUGCGAAUUCUGCUGU, the self-cleavage is 0.709. The same measure for GGGGGCCACAGCAGAAGCGUUCACGUCGCGGCCCCUGUGAGAUCCUGGUGAAUCUGCGAAUUCUGCUGU: 0.58. The same measure for GGGGGCCACAGCAGAAGCGUUCACGUCGCGGCCCCUGUUAGAUUCUGGUGAAUCUGCGACUUCUGCUGU: 0.341. To GGGGGCCACAGCAGAAGCGUUCACGUCGCGGCCCCUGUGAGAUUCUGGUGAAACUGCGAAUUCUGCUGU belongs 0.538; to GGGGGCCACAGCAGAAGCGUUCACGUCGCGGCCCCUGUGAGAUUCUGGUGAAGCUGCGAAUUCUGCUGU, 0.533. Turning to GGGGGCCACAGCAGAAGCGUUCACGUCGCGGCCCCUGUGAGAUUCUGGUGAACCUGCGAAUUCUGCUGU, the self-cleavage was 0.516. The same measure for GGGGGCCACAGCAGAAGCGUUCACGUCGCGGCCCCUGUGAGAUUCUGGUGAAUCUGCGAAUUCUGCUGC: 1.05; for GGGGGCCACAGCAGAAGCGUUCACGUCGCGGCCCCUGUGAGAUUCUGAUGAAUCUGCGAAUUCUGCUGU: 0.957. To GGGGGCCACAGCAGAAGCGUUCACGUCGCGGCCCCUGUGAGAUUCUGUUGAAUCUGCGAAUUCUGCUGU belongs 0.966; to GGGGGCCACAGCAGAAGCGUUCACGUCGCGGCCCCUGUUAGAUUCUGGUGUAUCUGCGAAUUCUGCUGU, 0.836; to GGGGGCCACAGCAGAAGCGUUCACGUCGCGGCCCCUGUGAGAUUCUGGUGAAUCUGCGAAUUCGGCUGU, 0.642. The same measure for GGGGGCCACAGCAGAAGCGUUCACGUCGCGGCCCCUGUGAGAUUCUGGUGAAUCUGCGAAUUCCGCUGU: 0.736; for GGGGGCCACAGCAGAAGCGUUCACGUCGCGGCCCCUGUGAGAUUCUGGUCAAUCUGCGAAUUCUGCUGU: 0.771. With GGGGGCCACAGCAGAAGCGUUCACGUCGCGGCCCCUGUGAGAUUCUGGUGAAUCUGCGAAUUCUGCUAU, the self-cleavage was 0.95. To GGGGGCCACAGCAGAAGCGUUCACGUCGCGGCCCCUGUGAGAUUCUGGUGAAUCUGCGAAUUCUGCUCU belongs 0.955; to GGGGGCCACAGCAGAAGCGUUCACGUCGCGGCCCCUGUGAGAUUCUGGUGAGUCUGCGAAUUCUGCUGU, 0.917. The same measure for GGGGGCCACAGCAGAAGCGUUCACGUCGCGGCCCCUGUGAGAUUCUGGUGACUCUGCGAAUUCUGCUGU: 0.89; for GGGGGCCACAGCAGAAGCGUUCACGUCGCGGCCCCUGUGAGAUUCUGGUGAUUCUGCGAAUUCUGCUGU: 0.858; for GGGGGCCACAGCAGAAGCGUUCACGUCGCGGCCCCUGUUAGAUUCUGGUGACUCUGCGAAUUCUGCUGU: 0.776. Turning to GGGGGCCACAGCAGAAGCGUUCACGUCGCGGCCCCUGUUAGAUUCUGGUGAGUCUGCGAAUUCUGCUGU, the self-cleavage was determined as 0.948. In the case of GGGGGCCACAGCAGAAGCGUUCACGUCGCGGCCCCUGUUAGAUUCUGGUGAUUCUGCGAAUUCUGCUGU, the self-cleavage turned out to be 0.78. To GGGGGCCACAGCAGAAGCGUUCACGUCGCGGCCCCUGUGAGAUUCGGGUGAAUCUGCGAAUUCUGCUGU belongs 0.907. To GGGGGCCACAGCAGAAGCGUUCACGUCGCGGCCCCUGUGAGAUUCAGGUGAAUCUGCGAAUUCUGCUGU belongs 0.997; to GGGGGCCACAGCAGAAGCGUUCACGUCGCGGCCCCUGUGAGAUUCUGGUGAAUCUGCAAAUUCUGCUGU, 0.864; to GGGGGCCACAGCAGAAGCGUUCACGUCGCGGCCCCUGUGAGAUUCUGGUGAAUCUGCUAAUUCUGCUGU, 1.01. In the case of GGGGGCCACAGCAGAAGCGUUCACGUCGCGGCCCCUGUGAGAUUCUGGUGAAUCUGCGAAAUCUGCUGU, the self-cleavage was determined as 0.703.

Consider GGGGGCCACAGCAGAAGCGUUCACGUCGCGGCCCCUGUGAGAUUCUGGUGAAUCUGCGAAGUCUGCUGU, for which the self-cleavage turned out to be 0.597. For the variant GGGGGCCACAGCAGAAGCGUUCACGUCGCGGCCCCUGUGAGAUUUUGGUGAAUCUGCGAAUUCUGCUGU, the self-cleavage came to 0.938. As for GGGGGCCACAGCAGAAGCGUUCACGUCGCGGCCCCUGUGAGAUUAUGGUGAAUCUGCGAAUUCUGCUGU, the self-cleavage came to 0.787.

Consider GGGGGCCACAGCAGAAGCGUUCACGUCGCGGCCCCUGUGAGAUUGUGGUGAAUCUGCGAAUUCUGCUGU, for which the self-cleavage was found to be 0.828. Consider GGGGGCCACAGCAGAAGCGUUCACGUCGCGGCCCCUGUUAGGUUCUGGUGAAUCUGCGAAUUCUGCUGU, for which the self-cleavage was found to be 0.514.

As to GGGGGCCACAGCAGAAGCGUUCACGUCGCGGCCCCUGUUAGCUUCUGGUGAAUCUGCGAAUUCUGCUGU, the self-cleavage came out at 0.542. In the case of GGGGGCCACAGCAGAAGCGUUCACGUCGCGGCCCCUGUGAGAUUCUGGAGAAUCUGCGAAUUCUGCUGU, the self-cleavage was found to be 0.923. To GGGGGCCACAGCAGAAGCGUUCACGUCGCGGCCCCUGUGAGAUUCUGGCGAAUCUGCGAAUUCUGCUGU belongs 0.875; to GGGGGCCACAGCAGAAGCGUUCACGUCGCGGCCCCUGUGAGAUUCUGGUGAAUCUGCGAGUUCUGCUGU, 0.794; to GGGGGCCACAGCAGAAGCGUUCACGUCGCGGCCCCUGUGAGAUUCUGGUGAAUCUGCGACUUCUGCUGU, 0.265. The same measure for GGGGGCCACAGCAGAAGCGUUCACGUCGCGGCCCCUGUGAGAUUCUGGUGAAUCUGCGAUUUCUGCUGU: 0.354; for GGGGGCCACAGCAGAAGCGUUCACGUCGCGGCCCCUGUGAGCUUCUGGUGAAUCUGCGAAUUCUGCUGU: 0.553; for GGGGGCCACAGCAGAAGCGUUCACGUCGCGGCCCCUGUGAGGUUCUGGUGAAUCUGCGAAUUCUGCUGU: 0.739. As to GGGGGCCACAGCAGAAGCGUUCACGUCGCGGCCCCUGUGAGUUUCUGGUGAAUCUGCGAAUUCUGCUGU, the self-cleavage amounted to 0.725. To GGGGGCCACAGCAGAAGCGUUCACGUCGCGGCCCCUGUGAGAUUCUGGUGAAUCAGCGAAUUCUGCUGU belongs 0.866; to GGGGGCCACAGCAGAAGCGUUCACGUCGCGGCCCCUGUAAGAUUCUGGUGAAUCUGCGAAUUCUGCUGG, 0.964. To GGGGGCCACAGCAGAAGCGUUCACGUCGCGGCCCCUGUGAUAUUCUGGUGAAUCUGCGAAUUCUGCUGU belongs 0.436. For GGGGGCCACAGCAGAAGCGUUCACGUCGCGGCCCCUGUGACAUUCUGGUGAAUCUGCGAAUUCUGCUGU, the self-cleavage amounted to 0.351. To GGGGGCCACAGCAGAAGCGUUCACGUCGCGGCCCCUGUGAGAUUCUGGUGAAUCUGCGAAUUCUACUGU belongs 0.599; to GGGGGCCACAGCAGAAGCGUUCACGUCGCGGCCCCUGUGCGAUUCUGGUGAAUCUGCGAAUUCUGCUGU, 0.606; to GGGGGCCACAGCAGAAGCGUUCACGUCGCGGCCCCUGUGUGAUUCUGGUGAAUCUGCGAAUUCUGCUGU, 0.644. The same measure for GGGGGCCACAGCAGAAGCGUUCACGUCGCGGCCCCUGUUGGAUUCUGGUGAAUCUGCGAAUUCUGCUGU: 0.813. On to GGGGGCCACAGCAGAAGCGUUCACGUCGCGGCCCCUGUUCGAUUCUGGUGAAUCUGCGAAUUCUGCUGU, for which the self-cleavage turned out to be 0.756. To GGGGGCCACAGCAGAAGCGUUCACGUCGCGGCCCCUGUGAGAUUCUGGUGAAUCUCCGAAUUCUGCUGU belongs 0.938; to GGGGGCCACAGCAGAAGCGUUCACGUCGCGGCCCCUGUGAGAUUCUGGUGAAUCUUCGAAUUCUGCUGU, 1. The same measure for GGGGGCCACAGCAGAAGCGUUCACGUCGCGGCCCCUGUGAGAUUCUGGUGAAUCUACGAAUUCUGCUGU: 0.882; for GGGGGCCACAGCAGAAGCGUUCACGUCGCGGCCCCUGUGAGAUUCUGGUGAAUCUGCGUAUUCUGCUGU: 0.587.

As to GGGGGCCACAGCAGAAGCGUUCACGUCGCGGCCCCUGUGAGAUUCUGGUGAAUCUGCGCAUUCUGCUGU, the self-cleavage is 0.488. The same measure for GGGGGCCACAGCAGAAGCGUUCACGUCGCGGCCCCUGUAAGAUUCUGGUGAAUCUGCGAAUUCUGCGGU: 0.932. As for GGGGGCCACAGCAGAAGCGUUCACGUCGCGGCCCCUGUGAGAUUCUGGUGAAUCUGCGAAUUCUGCUGU, the self-cleavage stood at 0.967. GGGGGCCACAGCAGAAGCGUUCACGUCGCGGCCCCUGUUAGAUUCUGGUGAAUCUGCGAAUUCUGCUGU: the self-cleavage turned out to be 0.954. The same measure for GGGGGCCACAGCAGAAGCGUUCACGUCGCGGCCCCUGUGAGAUUCUGGUGAAUCUGCGAAUUCUGGUGU: 0.566; for GGGGGCCACAGCAGAAGCGUUCACGUCGCGGCCCCUGUGAGAUUCUGGUGAAUCUGCGAAUUCUGUUGU: 0.961.

In the case of GGGGGCCACAGCAGAAGCGUUCACGUCGCGGCCCCUGUGAGAUUCUGGUGAAUCUGCGAAUGCUGCUGU, the self-cleavage was 0.592. To GGGGGCCACAGCAGAAGCGUUCACGUCGCGGCCCCUGUGAGAUUCUGGUGAAUCUGCGAAUACUGCUGU belongs 0.788; to GGGGGCCACAGCAGAAGCGUUCACGUCGCGGCCCCUGUGAGAUUCUGGUGAAUCUGCGAAUCCUGCUGU, 0.658. The same measure for GGGGGCCACAGCAGAAGCGUUCACGUCGCGGCCCCUGUUAGAUUCUGGUGAAUCUGCGGAUUCUGCUGU: 0.987. To GGGGGCCACAGCAGAAGCGUUCACGUCGCGGCCCCUGUGAGAUUCUGGUGAAUCUGCGAAUUCUGCCGU belongs 0.93. For GGGGGCCACAGCAGAAGCGUUCACGUCGCGGCCCCUGUGAGAUUCUGGUGUAUCUGCGAAUUCUGCUGU, the self-cleavage turned out to be 0.853. To GGGGGCCACAGCAGAAGCGUUCACGUCGCGGCCCCUGUGAGAUUCUGGUGCAUCUGCGAAUUCUGCUGU belongs 0.718; to GGGGGCCACAGCAGAAGCGUUCACGUCGCGGCCCCUGUGAGAUUCUGGUGGAUCUGCGAAUUCUGCUGU, 0.924; to GGGGGCCACAGCAGAAGCGUUCACGUCGCGGCCCCUGUGAGAUUCUGGUGAAUCUGCGAAUUUUGCUGU, 0.934. The same measure for GGGGGCCACAGCAGAAGCGUUCACGUCGCGGCCCCUGUGAGAUUCUGGUGAAUCUGCGAAUUAUGCUGU: 0.494.
